From publication PMC2175355

Molecular target: RNA polymerase holoenzyme (sigma70);RapA (native) (Escherichia coli;Escherichia coli) (UniProt P0A7Z4+P0A8V2+P0A8T7+P0A800+P00579+P60240)
Test: EMSA

55-nt RNA with two stem-loops and rA18 tail
binding signal (fold affinity vs holoenzyme without RapA): > 20
